Measurements taken from paper PMC3098852, “Molecular Design, Functional Characterization and Structural Basis of a Protein Inhibitor Against the HIV-1 Pathogenicity Factor Nef” (PLoS ONE, 2011).

How the values were obtained:
[1] = target: T1, HIV-1 NefSF2 (Δ1-44), C210A (HIV-1 SF2, UniProt P03407 45-210, C210A); experiment: ITC; details: both partners purified
T1 construct: source: E. coli BL21(DE3), purified (Ni-NTA, Superdex 75)

[2] = target: T2, HIV-1 NefSF2 wild type, full length (1-210), C210A (HIV-1 SF2, UniProt P03407, C210A); experiment: ITC; details: both partners purified
T2 construct: source: E. coli BL21(DE3), purified (Ni-NTA, Superdex 75)

| Binder | Kd [1] [nM] | dH [1] [kcal/mol] | stoichiometry N [1] | Kd [2] [nM] | dH [2] [kcal/mol] | stoichiometry N [2] |
| --- | --- | --- | --- | --- | --- | --- |
| NI1-2, Hck-SH3 (78-138) with RT loop V90SWSPD (domain or fragment, source: bacteria (pGEX-4T1 Tev vector), purified (GSH resin, Superdex 75)) not shown | 179 ± 29 | -8.16 ± 0.07 | 0.99 | – | – | – |
| NI1-3, Hck-SH3 (78-138) with RT loop Y90SPFSW (domain or fragment, source: bacteria (pGEX-4T1 Tev vector), purified (GSH resin, Superdex 75)) SEDIIVVALYDYYSPFSWDLSFQKGDQMVVLEESGEWWKARSLATRKEGYIPSNYVARVDS | 48 ± 11 | -7.99 ± 0.07 | 0.95 | – | – | – |
| GST-NI1-2, GST fusion of Hck-SH3 (78-138) with RT loop V90SWSPD (domain or fragment, source: bacteria (pGEX-4T1 Tev vector), purified (GSH resin, Superdex 75); not shown: GST, N-terminal, kept) not shown | – | – | – | 140 ± 6.7 | -8.9 ± 0.02 | 1.07 |
